Measurements taken from patent US9175282B2, “Cellobiose 2-epimerase, its preparation and uses” (HAYASHIBARA CO., LTD., priority 2009, dated 2015).
Entries after “also recorded” stand apart in the source; their conditions may differ.

B1: cellobiose 2-epimerase of the present invention: thermostable cellobiose 2-epimerase of Caldicellusiruptor saccharolyticus ATCC43494, amino acid sequence of SEQ ID NO:10 with 390 residues (protein, listed as Caldicellulosiruptor saccharolyticus)
chain: MDITRFKEDLKAHLEEKIIPFWQSLKDDEFGGYYGYMDFNLNIDRKAQKGCILNSRILWFFSACYNVLKSEKCKEMAFHAFEFLKNKFWDKEYEGLFWSVSHKGVPVDVTKHVYVQAFGIYGLSEYYEASGDEEALHMAKRLFEILETKCKRENGYTEQFERNWQEKENRFLSENGVIASKTMNTHLHVLESYTNLYRLLKLDDVYEALEWIVRLFVDKIYKKGTGHFKVFCDDNWNELIKAVSYGHDIEASWLLDQAAKYLKDEKLKEEVEKLALEVAQITLKEAFDGQSLINEMIEDRIDRSKIWWVEAETVVGFFNAYQKTKEEKYLDAAIKTWEFIKEHLVDRRKNSEWLWKVNEDLEAVNMPIVEQWKCPYHNGRMCLEIIKRVD
B2: recombinant epimerase: cellobiose 2-epimerase expressed in E. coli transformant ETCS1 and purified by heat treatment and chromatography (protein, listed as Caldicellulosiruptor saccharolyticus)
chain: B1 chain

How the values were obtained:
[1] = Lactose 2-epimerase activity of enzyme preparations; format: biochemical; conditions: purified enzyme
Protocol: Through the specification of the present invention, the activity of the cellobiose 2-epimerase was determined as a lactose 2-epimerase activity, which catalyzes epimerization of lactose to form epilactose, using lactose as the substrate obtainable in highly purified form at low cost. The lactose 2-epimerase activity was measured as follows. To 1,000 μl of substrate solution, which contains lactose to give a final concentration of 35.1 mM and acetate buffer (pH 6.0) to give a final concentration of 20 mM of the reaction solution, 200 μl of a enzyme solution was added to give a 1,200 μl of the reaction solution, followed by reaction at 50° C. for 20 minutes. The reaction was stopped by heating for 10 minutes in a boiling water bath. Then reaction mixture was subjected to HPLC chromatography to determine the amount of epilactose produced by the reaction. The HPLC chromatography was conducted at the following conditions; […]
Then, each seed culture broth was inoculated into 10 L of the same medium eight each in eight 11-L pressure steel bottles and cultured. […] The epimerase activity of the crude enzyme was determined to be 0.009 Unit/ml.
The enzyme preparation purified by the above process contained 0.9 mg protein, and its activity yield was 3.4% from the crude enzyme. […] The amount of protein was measured by Lowry method using bovine serum albumin as standard.

[2] = Optimum temperature and optimum pH of epimerase activity; format: biochemical; conditions: for Optimum pH: reacted at 50° C. for 20 minutes; for Optimum temperature: reacted at pH 6.0 for 20 minutes
Protocol: Through the specification of the present invention, the activity of the cellobiose 2-epimerase was determined as a lactose 2-epimerase activity, which catalyzes epimerization of lactose to form epilactose, using lactose as the substrate obtainable in highly purified form at low cost. The lactose 2-epimerase activity was measured as follows. To 1,000 μl of substrate solution, which contains lactose to give a final concentration of 35.1 mM and acetate buffer (pH 6.0) to give a final concentration of 20 mM of the reaction solution, 200 μl of a enzyme solution was added to give a 1,200 μl of the reaction solution, followed by reaction at 50° C. for 20 minutes. The reaction was stopped by heating for 10 minutes in a boiling water bath. Then reaction mixture was subjected to HPLC chromatography to determine the amount of epilactose produced by the reaction. The HPLC chromatography was conducted at the following conditions;
Using the purified cellobiose 2-epimerase preparation obtained by the method of Experiment 2, effects of temperature and pH on the epimerase activity were investigated according to the method of assaying the activity. The results were in FIG. 3 (optimum temperature) and FIG. 4 (optimum pH). The optimum temperature of the enzyme is 80° C. when reacted at pH 6.0 for 20 minutes. The optimum pH of the enzyme is 7.8 when reacted at 50° C. for 20 minutes.

[3] = system: cellobiose 2-epimerase; assay: Effect of metal ions on the epimerase activity; format: biochemical, Caldicellusiruptor saccharolyticus ATCC43494; conditions: ions that inhibit the enzyme; listed as Caldicellulosiruptor saccharolyticus ATCC43494
[4] = Substrate specificities of the cellobiose 2-epimerase (summary Table 6); format: biochemical; conditions: listed as Caldicellulosiruptor saccharolyticus ATCC43494
Protocol: Reaction products formed from D-glucose, D-galactose, and D-mannose by the action of the cellobiose 2-epimerase of the present invention were investigated. D-Glucose, D-galactose, or D-mannose was dissolved into 50 mM acetate buffer (pH 6.0) to give a final concentration of 20% (w/v) to make into a substrate solution. To 0.1 ml of the substrate solution, 130 units/g-solid substrate for D-glucose and D-mannose (0.1 ml as the enzyme solution), or 500 units/g-solid substrate for D-galactose (0.1 ml as the enzyme solution), of the purified preparation of the recombinant cellobiose 2-epimerase, obtained by the method in Experiment 4-4, was admixed; and followed the enzyme reaction at 60° C. for 48 hours.
Each of them was dissolved into 20 mM acetate buffer (pH 6.0), admixed with the purified preparation of the recombinant cellobiose 2-epimerase, obtained by the method in Experiment 4-4, and followed the enzyme reaction under the conditions of 10% (w/v) substrate concentration, 60° C. for 72 hours. The amount of enzyme was set to 130 or 500 units/g-substrate when monosaccharide was used as the substrate, and to 1 or 130 units/g-substrate when disaccharide or trisaccharide was used as the substrate. Each reaction mixture was heated at 100° C. for 10 minutes to stop the reaction and subjected to HPLC analysis to determine the contents of isomerized saccharide, on a dry solid basis. The contents of epilactose and lactulose in the reaction mixture obtained using lactose as substrate were determined by GC analysis described in Experiment 1-2.
The physicochemical properties and substrate specificities of the cellobiose 2-epimerase from Caldicellulosiruptor saccharolyticus ATCC43494, obtained from above experiments, were shown in Table 6 together with those of conventional cellobiose 2-epimerases from Ruminococcus albus (excerpted from Non-Patent Document 3) and Eubacterium cellosolvens (excerpted from Non-Patent Document 4).

[5] = Thermostability and pH stability (residual activity); conditions: incubated at pH 6.0 for 60 minutes
Protocol: The thermostability was determined as the residual activity of the enzyme, after incubated at given temperatures for 60 minutes in 10 mM acetate buffer (pH 6.0) followed by being cooled in cold water.

Molecule | Specific activity [1] | Optimum pH [2] | Optimum temperature [2] | Optimum temperature ([2]; listed as Caldicellulosiruptor saccharolyticus ATCC43494) | Optimum temperature ([2]; listed as purified cellobiose 2-epimerase preparation) | Inhibition by metal ions [3] | Substrate specificity: Cellobiose ([4]; substrate Cellobiose) | Substrate specificity: D-Galactose ([4]; substrate D-Galactose) | Substrate specificity: D-Glucose ([4]; substrate D-Glucose) | Substrate specificity: D-Mannose ([4]; substrate D-Mannose) | Substrate specificity: Lactose ([4]; substrate Lactose) | Substrate specificity: Maltose ([4]; substrate Maltose) | Thermostability (stable up to) [5]
B1 | 26.9 unit/mg-protein | 7.8 | 80 °C | 80 °C | 80 °C | Al^3+, Fe^2+, Fe^3+,; also recorded: Pb^2+, Cu^2+, Zn^2+,; also recorded: Hg^2+ | epicellobiose | Forming D-talose | Forming D-mannose | Forming D-glucose | Forming epilactose | Forming epimaltose | 
B2 |  | about 7.8 | about 80 °C |  |  |  |  |  |  |  |  |  | up to 70 °C
